Experimental data from US20240269235A1 (Gilead, published 2024).

Legend:
[1] = target: T1, IL-2Rαβγ on KHYG-1 cells (human NK leukemia cell line that expresses IL-2Rα, β, and γ) (human, UniProt P01589 22-272; P14784 27-551; P31785 23-369); assay: cell-based or functional assay
T1 sequence (looked up) 1: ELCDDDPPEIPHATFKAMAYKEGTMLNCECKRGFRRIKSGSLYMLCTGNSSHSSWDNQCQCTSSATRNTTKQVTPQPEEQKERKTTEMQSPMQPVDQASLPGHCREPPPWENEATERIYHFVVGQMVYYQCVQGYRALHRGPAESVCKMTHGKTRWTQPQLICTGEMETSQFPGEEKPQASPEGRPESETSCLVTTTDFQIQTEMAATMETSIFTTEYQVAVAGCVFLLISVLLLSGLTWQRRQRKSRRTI
T1 sequence (looked up) 2: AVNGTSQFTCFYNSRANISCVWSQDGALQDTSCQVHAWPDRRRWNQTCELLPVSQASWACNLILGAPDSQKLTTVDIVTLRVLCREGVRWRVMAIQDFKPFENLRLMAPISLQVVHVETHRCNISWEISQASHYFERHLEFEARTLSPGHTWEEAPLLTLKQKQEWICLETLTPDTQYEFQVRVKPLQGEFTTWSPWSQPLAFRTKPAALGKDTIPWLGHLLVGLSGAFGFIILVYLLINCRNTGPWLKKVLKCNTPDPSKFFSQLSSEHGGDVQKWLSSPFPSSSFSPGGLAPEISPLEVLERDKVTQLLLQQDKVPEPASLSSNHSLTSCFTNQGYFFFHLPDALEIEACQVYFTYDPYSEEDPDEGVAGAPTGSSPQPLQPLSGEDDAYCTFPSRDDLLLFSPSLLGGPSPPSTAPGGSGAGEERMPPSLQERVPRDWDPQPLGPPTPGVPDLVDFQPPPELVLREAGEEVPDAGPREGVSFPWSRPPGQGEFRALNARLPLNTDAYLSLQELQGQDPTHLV
T1 sequence (looked up) 3: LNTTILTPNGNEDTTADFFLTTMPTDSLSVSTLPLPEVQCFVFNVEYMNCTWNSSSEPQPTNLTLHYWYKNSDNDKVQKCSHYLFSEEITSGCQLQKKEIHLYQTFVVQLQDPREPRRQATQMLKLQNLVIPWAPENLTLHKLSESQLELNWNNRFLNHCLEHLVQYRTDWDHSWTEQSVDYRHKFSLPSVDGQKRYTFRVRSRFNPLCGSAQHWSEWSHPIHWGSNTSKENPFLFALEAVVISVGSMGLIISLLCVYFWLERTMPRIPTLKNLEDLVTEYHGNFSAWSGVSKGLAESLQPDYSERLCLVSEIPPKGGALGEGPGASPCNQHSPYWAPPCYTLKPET

[2] = target: T2, trimeric murine IL-2 receptor (IL-2Rα, IL-2Rβ, and IL-2Rγ) on CTLL-2 cells (murine, UniProt P01590 22-268; P16297 27-539; P34902 23-369); assay: cell-based or functional assay
T2 sequence (looked up) 1: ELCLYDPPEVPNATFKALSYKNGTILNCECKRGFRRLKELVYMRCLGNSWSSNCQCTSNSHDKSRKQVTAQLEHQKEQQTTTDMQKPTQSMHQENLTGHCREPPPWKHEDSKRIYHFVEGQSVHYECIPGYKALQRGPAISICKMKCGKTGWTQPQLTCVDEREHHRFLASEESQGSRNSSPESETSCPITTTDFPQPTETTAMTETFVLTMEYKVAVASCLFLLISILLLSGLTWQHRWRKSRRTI
T2 sequence (looked up) 2: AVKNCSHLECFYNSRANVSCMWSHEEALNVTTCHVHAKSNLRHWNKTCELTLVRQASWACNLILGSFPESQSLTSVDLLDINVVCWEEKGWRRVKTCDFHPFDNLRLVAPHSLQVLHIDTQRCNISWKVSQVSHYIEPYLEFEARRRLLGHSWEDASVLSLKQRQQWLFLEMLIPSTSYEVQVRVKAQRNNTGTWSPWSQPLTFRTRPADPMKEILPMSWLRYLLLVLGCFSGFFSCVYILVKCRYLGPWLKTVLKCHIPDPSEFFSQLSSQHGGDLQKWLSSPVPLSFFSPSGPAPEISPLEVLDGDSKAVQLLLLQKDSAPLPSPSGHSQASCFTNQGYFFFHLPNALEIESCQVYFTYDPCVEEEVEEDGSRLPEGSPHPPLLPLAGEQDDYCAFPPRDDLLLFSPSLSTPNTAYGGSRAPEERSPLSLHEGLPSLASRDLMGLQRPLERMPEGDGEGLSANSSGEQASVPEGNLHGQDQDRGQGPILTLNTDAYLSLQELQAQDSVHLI
T2 sequence (looked up) 3: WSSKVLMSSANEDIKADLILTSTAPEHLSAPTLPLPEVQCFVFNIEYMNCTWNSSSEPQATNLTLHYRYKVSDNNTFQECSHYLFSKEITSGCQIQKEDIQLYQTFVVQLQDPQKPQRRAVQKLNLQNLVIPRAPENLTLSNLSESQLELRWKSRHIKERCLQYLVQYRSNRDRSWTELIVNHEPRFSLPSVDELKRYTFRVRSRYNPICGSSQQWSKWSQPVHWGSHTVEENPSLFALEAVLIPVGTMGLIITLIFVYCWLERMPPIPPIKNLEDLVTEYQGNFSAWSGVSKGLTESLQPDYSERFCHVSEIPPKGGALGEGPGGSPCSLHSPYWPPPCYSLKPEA

[3] = target: T3, IL-2Rβγ heterodimer, custom biotinylated Fc fusion protein (human IL-2Rβ 27-240-Fc-FLAG / human IL-2Rγ … (human, site-specific biotinylation at the AviTag)); assay: SPR (Biacore), CM4 chip, biotinylated receptor on neutravidin
T3 construct: Extracellular regions fused to IgG1 knob-in-hole Fc subunits with tags; also called IL-2 receptor βγ heterodimer; Fc-IL-2Rβγ
Method: (§1) Fc-IL-2 variant binding data was collected on a Biacore platform using a CM4 chip. Neutravidin was immobilized using standard amine coupling methods and used to capture biotinylated receptors. The source, preparation and immobilization of biotinylated IL-2Rα and IL-2Rβγ heterodimer was as described in Example 4. Proleukin was used as a comparator. Fc-IL-2 variants and Proleukin were injected at various concentrations over these surfaces. Kinetic data obtained from these injections was used to extract kₒₙ and koff to calculate KD (KD=Koff/kₒₙ).

[4] = target: T4, IL-2Rα (recombinant IL-2 receptor α, R&D Systems Cat #: 223-2A/CF), biotinylated (human, UniProt P01589 22-213, limits assumed, biotinylated using sulfo-NHS-LC-LC-Biotin); assay: as above
T4 construct: Bought reagent; also used here as the IL-2Rα partner of the in-silico analysis of PDB 2B5I (another construct); also called IL-2RA; CD25
T4 sequence (looked up): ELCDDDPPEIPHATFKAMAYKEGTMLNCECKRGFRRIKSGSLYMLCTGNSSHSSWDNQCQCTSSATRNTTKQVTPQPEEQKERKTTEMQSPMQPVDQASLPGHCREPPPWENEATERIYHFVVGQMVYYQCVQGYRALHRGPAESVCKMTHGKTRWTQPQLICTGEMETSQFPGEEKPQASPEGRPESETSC
Method: as §1

B1: Fc-IL-2 heterodimer 117.46 (hIL-2v_Δ1-5_C125S), native IL-2Rα binding interface (Fc fusion)
chain 1: ESKYGPPCPPCPAPEAAGGPSVFLFPPKPKDTLMISRTPEVTCVVVDVSQEDPEVQFNWYVDGVEVHNAKTKPREEQFNSTYRVVSVLTVLHQDWLNGKEYKCKVSNKGLPSSIEKTISKAKGQPREPQVYTLPPSQEEMTKNQVSLWCLVKGFYPSDIAVEWESNGQPENNYKTTPPVLDSDGSFFLYSRLTVDKSRWQEGNVFSCSVMHEALHNHYTQKSLSLSLGGGGGSGGGGSGGGGSGGGGSSTKKTQLQLEHLLLDLQMILNGINNYKNPKLTRMLTFKFYMPKKATELKHLQCLEEELKPLEEVLNLAQSKNFHLRPRDLISNINVIVLELKGSETTFMCEYADETATIVEFLNRWITFSQSIISTLT
chain 2: ESKYGPPCPPCPAPEAAGGPSVFLFPPKPKDTLMISRTPEVTCVVVDVSQEDPEVQFNWYVDGVEVHNAKTKPREEQFNSTYRVVSVLTVLHQDWLNGKEYKCKVSNKGLPSSIEKTISKAKGQPREPQVYTLPPSQEEMTKNQVSLSCAVKGFYPSDIAVEWESNGQPENNYKTTPPVLDSDGSFFLVSRLTVDKSRWQEGNVFSCSVMHEALHNRFTQKSLSLSLGK
notes: hIgG4 knob-in-hole Fc heterodimer
Proliferation of KHYG-1 NK cells, EC50 [1]: 16 pM | STAT5 activation of CTLL-2 cells, EC50 [2]: 2 pM | Kd [3]: 56 pM | Kd [4]: 60000 pM
